T1: MsaB-His (MsaBhis) (Staphylococcus aureus USA300 LAC) (UniProt Q2FH36)
T1 sequence: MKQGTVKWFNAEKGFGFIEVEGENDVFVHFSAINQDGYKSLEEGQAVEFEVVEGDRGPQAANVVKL

T2: MsaB-His (MsaBhis) (Staphylococcus aureus USA300 LAC, UniProt Q2FH36 1-66)
T2 sequence: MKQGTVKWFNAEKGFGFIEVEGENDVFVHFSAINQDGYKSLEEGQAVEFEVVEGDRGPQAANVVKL


Key:
[1] = target: T1, MsaB-His (MsaBhis) (Staphylococcus aureus USA300 LAC); assay: competition
[2] = target: T1, MsaB-His (MsaBhis) (Staphylococcus aureus USA300 LAC); assay: EMSA
[3] = target: T2, MsaB-His (MsaBhis); assay: EMSA; 5 mM MgCl2, poly(dI-dC); details: protein: recombinant; tags: C-terminal 6xHis; label: 5'-biotin

Molecule | binding result [3] | further results
TCCACTAACATCATCCTAACTATTTCAACACGTTTATTTCATTATACACAACTTCTTAAACATTCAATAAATTTAGATTTATAAAATTGCTTTATAAAAAGTTTTATGTAAAATACACATTCTTTTATGGTATTATATTAATGGCTCAAGT (double strand) [PcidR promoter unlabeled competitor] | – | binding [1]: binds
TCCACTAACATCATCCTAACTATTTCAACACGTTTATTTCATTATACACAACTTCTTAAACATTCAATAAATTTAGATTTATAAAATTGCTTTATAAAAAGTTTTATGTAAAATACACATTCTTTTATGGTATTATATTAATGGCTCAAGT (double strand) [PcidR promoter probe] | – | binding [2]: binds
PcidABC-EMSA (dsDNA) DNA 1: AGTGAAATTTAGAGAGCGTTTCCATAGAAAATAGTAATACAAACCATAAAAAAAGAGTAT DNA 2: ATACTCTTTTTTTATGGTTTGTATTACTATTTTCTATGGAAACGCTCTCTAAATTTCACT | no binding | –
PalsSD-EMSA (dsDNA) DNA 1: ATACTCTTTTTTTATGGTTTGTATTACTATTTTCTATGGAAACGCTCTCTAAATTTCACT DNA 2: AGTGAAATTTAGAGAGCGTTTCCATAGAAAATAGTAATACAAACCATAAAAAAAGAGTAT | no binding | –

Source: article PMC9204165, “Delineating the Role of the msaABCR Operon in Staphylococcal Overflow Metabolism”
